Here are results for 91 sequences from the supplement of paper PMC9112550, “Optimization of the antimicrobial peptide Bac7 by deep mutational scanning” (BMC Biology, 2022).
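Also: peptides expressed intracellularly from a pBAD plasmid library in pooled LB shake-flask culture, induced with 0.3% L-arabinose, DNA abundance read by NGS, three biological replicates, DESeq2 with apeglm shrinkage.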

This data set deals with Escherichia coli TOP10. The data set can be described thus: shrunken log2 fold change of peptide-encoding DNA abundance (4.5 h post-induction vs induction); higher = less antimicrobial activity (less host growth inhibition). The note with it: time post-induction: 4.5 h; library: site-saturation at positions 5, 18, 19, 20.
Take RRIRHRPPRLPRPRPRPDAIPRP: the “shrunken log2 fold change” value was -0.025. As for RRIRNRPPRLPRPRPRPPFAPRP, the “shrunken log2 fold change” value amounted to 0.201. Then RRIRHRPPRLPRPRPRPSNYPRP, with -0.28; and RRIRARPPRLPRPRPRPIVSPRP, with 0.0293.

Turning to RRIRQRPPRLPRPRPRPYIMPRP, the “shrunken log2 fold change” value is -1.64. Consider RRIRSRPPRLPRPRPRPRIYPRP, for which the “shrunken log2 fold change” value is -0.517.

Take RRIRSRPPRLPRPRPRPHDCPRP: the “shrunken log2 fold change” value was -0.0708.

With RRIRGRPPRLPRPRPRPHFFPRP, the “shrunken log2 fold change” value came to 0.328. On to RRIRFRPPRLPRPRPRPQIGPRP, for which the “shrunken log2 fold change” value was -0.128. Consider RRIRRRPPRLPRPRPRPDSYPRP, for which the “shrunken log2 fold change” value is -0.117. Then RRIRTRPPRLPRPRPRPLKMPRP, with -0.0458; and RRIRGRPPRLPRPRPRPWDRPRP, with -0.141. Then RRIRPRPPRLPRPRPRPTGCPRP, with 0.0367.

Regarding RRIRGRPPRLPRPRPRPFQLPRP, the “shrunken log2 fold change” value was 0.0144.

Turning to RRIRPRPPRLPRPRPRPSCQPRP, the “shrunken log2 fold change” value was -0.733. Regarding RRIRERPPRLPRPRPRPMNSPRP, the “shrunken log2 fold change” value was -0.0427.

On to RRIRDRPPRLPRPRPRPWNCPRP, for which the “shrunken log2 fold change” value was -0.3. As for RRIRDRPPRLPRPRPRPYEHPRP, the figure is 0.077; as for RRIRLRPPRLPRPRPRPCTSPRP, -0.114; as for RRIRERPPRLPRPRPRPVQGPRP, 0.166. Turning to RRIRMRPPRLPRPRPRPHWYPRP, the “shrunken log2 fold change” value was -0.484. Turning to RRIRDRPPRLPRPRPRPALKPRP, the “shrunken log2 fold change” value turned out to be 0.407. Then RRIRPRPPRLPRPRPRPSCPPRP, with -0.123; and RRIRQRPPRLPRPRPRPVSYPRP, with 0.0822; and RRIRVRPPRLPRPRPRPFRPPRP, with -0.324. Turning to RRIRWRPPRLPRPRPRPVMIPRP, the “shrunken log2 fold change” value stood at 0.0436. Then RRIRARPPRLPRPRPRPKFYPRP, with -0.214; and RRIRIRPPRLPRPRPRPQPWPRP, with 0.102; and RRIRYRPPRLPRPRPRPIISPRP, with -0.18.

RRIRVRPPRLPRPRPRPYLEPRP: the “shrunken log2 fold change” value is -0.141. Then RRIRPRPPRLPRPRPRPWIWPRP, with -0.186; and RRIRNRPPRLPRPRPRPDISPRP, with 0.000389. Then RRIRFRPPRLPRPRPRPMYAPRP, with -0.406. Take RRIRARPPRLPRPRPRPPWLPRP: the “shrunken log2 fold change” value was found to be 0.495. Then RRIRSRPPRLPRPRPRPVIRPRP, with -0.213. Then RRIRGRPPRLPRPRPRPLMCPRP, with 0.55. As for RRIRARPPRLPRPRPRPCTKPRP, the figure is 0.143; as for RRIRKRPPRLPRPRPRPRHAPRP, 0.727; as for RRIRKRPPRLPRPRPRPQAHPRP, 0.266. With RRIRCRPPRLPRPRPRPHKPPRP, the “shrunken log2 fold change” value worked out at 0.0762. As for RRIRSRPPRLPRPRPRPMALPRP, the figure is 0.213; as for RRIRDRPPRLPRPRPRPYQDPRP, -0.00141; as for RRIRCRPPRLPRPRPRPCFPPRP, -0.321. As for RRIRRRPPRLPRPRPRPGAHPRP, the figure is 0.45; as for RRIRTRPPRLPRPRPRPRIIPRP, -0.215. Then RRIRDRPPRLPRPRPRPTSWPRP, with 0.989; and RRIRSRPPRLPRPRPRPWHNPRP, with -0.00544.

For RRIRSRPPRLPRPRPRPHWFPRP, the “shrunken log2 fold change” value is -0.0389. Then RRIRQRPPRLPRPRPRPVTFPRP, with -0.0496; and RRIRFRPPRLPRPRPRPRESPRP, with 0.45; and RRIRPRPPRLPRPRPRPSMNPRP, with -0.522. Then RRIRQRPPRLPRPRPRPKPRPRP, with 0.309; and RRIRWRPPRLPRPRPRPGFIPRP, with 0.0297. Then RRIRSRPPRLPRPRPRPCGRPRP, with -0.485; and RRIRNRPPRLPRPRPRPCMDPRP, with -0.129; and RRIRHRPPRLPRPRPRPGNGPRP, with 0.278. Regarding RRIRWRPPRLPRPRPRPGWRPRP, the “shrunken log2 fold change” value came to 0.617.

On to RRIRPRPPRLPRPRPRPSCLPRP, for which the “shrunken log2 fold change” value is -0.317. As for RRIRVRPPRLPRPRPRPQSVPRP, the figure is -0.0666; as for RRIRDRPPRLPRPRPRPSRCPRP, 0.346. As for RRIRCRPPRLPRPRPRPDYLPRP, the figure is 0.0148. As for RRIRSRPPRLPRPRPRPDAWPRP, the figure is 0.545; as for RRIRGRPPRLPRPRPRPLLEPRP, 1.39; as for RRIRMRPPRLPRPRPRPRGLPRP, 0.727. On to RRIRTRPPRLPRPRPRPCSQPRP, for which the “shrunken log2 fold change” value is -0.018. Then RRIRARPPRLPRPRPRPHCHPRP, with -0.195; and RRIRRRPPRLPRPRPRPFNVPRP, with -0.264; and RRIRCRPPRLPRPRPRPNKYPRP, with -0.324.

On to RRIRERPPRLPRPRPRPRSHPRP, for which the “shrunken log2 fold change” value is -0.349.

Take RRIRNRPPRLPRPRPRPMAHPRP: the “shrunken log2 fold change” value was -0.0456. As for RRIRFRPPRLPRPRPRPCVLPRP, the figure is -0.401. As for RRIRYRPPRLPRPRPRPGVMPRP, the figure is -0.55. Then RRIRVRPPRLPRPRPRPLWSPRP, with -0.0257.

Turning to RRIRNRPPRLPRPRPRPYWSPRP, the “shrunken log2 fold change” value was -0.195. Then RRIRQRPPRLPRPRPRPEACPRP, with -0.000521; and RRIRQRPPRLPRPRPRPWLIPRP, with -0.289; and RRIRQRPPRLPRPRPRPCHRPRP, with 0.0197. As for RRIRPRPPRLPRPRPRPYAQPRP, the figure is -0.478; as for RRIRARPPRLPRPRPRPTLNPRP, 0.496; as for RRIRMRPPRLPRPRPRPSEQPRP, -0.0153.

On to RRIRLRPPRLPRPRPRPAIMPRP, for which the “shrunken log2 fold change” value is -0.16. Regarding RRIRNRPPRLPRPRPRPTVCPRP, the “shrunken log2 fold change” value is -0.0905.

With RRIRRRPPRLPRPRPRPGQKPRP, the “shrunken log2 fold change” value was -0.0196. Then RRIRMRPPRLPRPRPRPYAIPRP, with -0.0168; and RRIRKRPPRLPRPRPRPPMSPRP, with 0.328. Regarding RRIRYRPPRLPRPRPRPDKEPRP, the “shrunken log2 fold change” value was -0.478.

Regarding RRIRLRPPRLPRPRPRPHPLPRP, the “shrunken log2 fold change” value is -0.152. As for RRIRFRPPRLPRPRPRPHITPRP, the figure is -0.734. On to RRIRIRPPRLPRPRPRPINFPRP, for which the “shrunken log2 fold change” value is -0.346. Take RRIRLRPPRLPRPRPRPVYMPRP: the “shrunken log2 fold change” value is -0.283. Take RRIRTRPPRLPRPRPRPRKAPRP: the “shrunken log2 fold change” value was determined as 0.326.
